Test results taken from patent US20260217800A1.

Target: full length gp41 HIV protein (Abcam) (human immunodeficiency virus-1 (HIV-1))
Assay: titration ELISA, wells coated with 1 µg/mL antigen, 2F5 in 4-fold dilutions from 30 µg/mL

With “2F5 broadly neutralizing human monoclonal antibody” the EC50 (read off the curve) was 0.1 µg/mL.
